Measured values from the supplement of paper PMC12764529.
± gives the half width of the 95% confidence interval.

What was measured:
[1] = folding stability dG unfold (combined trypsin and chymotrypsin); higher = more stable
Method in brief: (§1)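 Unfolding free energy was derived, per protease or combined, by relating Bayesian-fitted K50 values from sequencing counts to a sequence-predicted unfolded-state K50 and a shared folded-state K50. The underlying digests exposed cysteine-free mini-proteins under 80 residues, in a PA-tagged cDNA display construct, to trypsin and chymotrypsin at 11 threefold-diluted concentrations and to a no-protease condition. A filter kept only designs with AlphaFold2 dimer inter-PAE above 15.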

[2] = folding stability dG unfold from trypsin proteolysis; higher = more stable
Method in brief: as §1

[3] = folding stability dG unfold from chymotrypsin proteolysis; higher = more stable
Method in brief: as §1

| Sequence | folding stability dG unfold [1] [kcal/mol] | folding stability dG unfold [2] [kcal/mol] | folding stability dG unfold [3] [kcal/mol] |
| --- | --- | --- | --- |
| SAGGSAGGSAGEEFIKKIPPGAEVKPITPLESEGKVYVKITVKKKDENGKWTEEEFIFKVSAGGSAGGSAGG [r17_140_JUSTAS] | 1.28 ± 0.22 | 1.17 ± 0.072 | 1.38 ± 0.087 |
| SAGGSAGGSAGEEKEYRIVVPFDSDDPEAFVRAVFDGIPPDVPIKAIDFNPELGYGVVVASAGGSAGGSAGG [r11_698_TrMRF] | 0.892 ± 0.11 | 0.364 ± 0.091 | 1.07 ± 0.072 |
| SAGGSAGGSAGEFEILSIETEPPNGRVEIAIRFDDWVVVINFDNPNEPELYPVRPDDGIFSAGGSAGGSAGG [r17_145_TrROS] | 2.3 ± 0.17 | 2.54 ± 0.19 | 2.24 ± 0.12 |
| SAGGSAGGSAGEIEVTVTFTGDDGYVVEVKYTFEVPEPNNPIIKKVEVKVKKLKPNEPASSAGGSAGGSAGG [r11_517_TrMRF] | 2.22 ± 0.23 | 1.12 ± 0.075 | 2.63 ± 0.063 |
| SAGGSAGGSAGEKDLPVIEVEFPFPSSFPLPLIKKFAEPFGVKKVEFFEDGTVKVLYVLDSAGGSAGGSAGG [r11_961_TrMRF] | 0.806 ± 0.13 | 0.416 ± 0.1 | 0.984 ± 0.14 |
| SAGGSAGGSAGEKTFVIDEVKITSVERLPDGSLRVTIEVRLPNGETLTLTLTLPPGAVLESAGGSAGGSAGG [r11_429_TrROS_Hall] | 3.05 ± 0.07 | 2.84 ± 0.11 | 3.19 ± 0.042 |
| SAGGSAGGSAGEKTIKIKVKDKNGKTKTITLKIKNAKFKPGQKIEIVKVNKNGSLEIKLKSAGGSAGGSAGG [r11_733_TrROS_Hall] | 1.6 ± 0.24 | 0.678 ± 0.059 | 1.82 ± 0.087 |
| SAGGSAGGSAGEKVIRFPFKSPEEIREHIKNGRPIRFPNGKPVKITKIQPYPNGWLWITVSAGGSAGGSAGG [r11_48_TrROS] | 1.12 ± 0.21 | 0.89 ± 0.05 | 1.3 ± 0.12 |
| SAGGSAGGSAGEKVKLVITTTVTLPALDPEGGEFVGPVTFTETIVLDMNPEDAARLLAAASAGGSAGGSAGG [r17_283_TrMRF] | 2.23 ± 0.056 | 1.4 ± 0.034 | 2.675 ± 0.013 |
| SAGGSAGGSAGENKPIKVLVFLEKEDEYYEELFEFDSPEEIEEWLKKIPKDYKVKKVIVFSAGGSAGGSAGG [r17_410_TrMRF] | 3.61 ± 0.16 | 3.09 ± 0.11 | 3.95 ± 0.14 |
| SAGGSAGGSAGEPIKGIIRVYNPETGEVTDIELEFKTLEEALAFAASLPPTVARVEIVFASAGGSAGGSAGG [r11_25_TrMRF] | 2.66 ± 0.095 | 1.6 ± 0.059 | 3.002 ± 0.03 |
| SAGGSAGGSAGFHIDVEVHRDDEGYVKVRVKMYMYNPDPGEPMGSFEMTIWIPPEDADKLSAGGSAGGSAGG [r11_575_TrROS] | 3.7 ± 0.098 | 3.33 ± 0.14 | 3.9 ± 0.056 |
| SAGGSAGGSAGFYKAKLKILKTKVYSNEKGTKKKTYKPVLILEELIPPKIPKELWEKLNKSAGGSAGGSAGG [r11_318_TrMRF] | 0.55 ± 0.57 | 0.836 ± 0.3 | 0.528 ± 0.4 |
| SAGGSAGGSAGGAAPNTFKVRLELKVKVEKRTYKNEDGSTYEVDSISVELKIEIEPLPDSAGGSAGGSAGGS [r10_1212_TrROS_Hall] | 5.66 ± 0.51 | 3.85 ± 0.19 | 5.69 ± 0.2 |
| SAGGSAGGSAGGAEITIEEKDGKLTLTVRLPDGYVATATFDPNGKWTIKEIKVYKLPEGLSAGGSAGGSAGG [r7_826_TrROS_Hall] | 3.05 ± 0.47 | 2.35 ± 0.3 | 3.52 ± 0.077 |
| SAGGSAGGSAGGAEKFKVLSVSWDLGKGKRYGVLEVERPDGPLLTIVVPLSYPDKLKELASAGGSAGGSAGG [r7_365_TrMRF] | 1.02 ± 0.22 | 0.395 ± 0.14 | 1.29 ± 0.17 |
| SAGGSAGGSAGGAELLPSDVLKFTLTIQPDLKGSPPIIVEVTISVPPEVLEKPEIEVSLSAGGSAGGSAGGS [r10_672_JUSTAS] | 2.7 ± 0.15 | 2.12 ± 0.15 | 2.87 ± 0.093 |
| SAGGSAGGSAGGAKKAIEEAIKAGYLPYEDPESGKIHFYFPTPDGTIHKLTLFVAPEEESAGGSAGGSAGGS [r10_1173_TrMRF] | 0.796 ± 0.14 | 0.591 ± 0.03 | 0.711 ± 0.17 |
| SAGGSAGGSAGGAKTTTLGSESEEEIRAVAAKLPADSTITTNRPGGTSVITVSPNEIVTNSAGGSAGGSAGG [r7_560_JUSTAS] | 0.836 ± 0.055 | 0.144 ± 0.043 | 1.22 ± 0.046 |
| SAGGSAGGSAGGALEEKAKEIIEELKKKGIKVKEVKTSPNEITITFEDGSTKKIPIINGSAGGSAGGSAGGS [r10_169_JUSTAS] | 2.66 ± 0.1 | 2.55 ± 0.12 | 2.54 ± 0.16 |
| SAGGSAGGSAGGAPAAVESVEPLKIGDKEYLRITFPDGTTVTLPSSTPLSPDGQKLKPVPSAGGSAGGSAGG [r7_931_JUSTAS] | 0.628 ± 0.033 | 0.65 ± 0.042 | 0.503 ± 0.031 |

| Sequence | folding stability dG unfold [1] [kcal/mol] | folding stability dG unfold [2] [kcal/mol] | folding stability dG unfold [3] [kcal/mol] |
| --- | --- | --- | --- |
| SAGGSAGGSAGGAPEKEVTVRVRITVFRDGKPVEEIELEPGQTLTFPPGARVVIEVELLPSAGGSAGGSAGG [r7_141_TrROS_Hall] | 3.39 ± 0.17 | 3 ± 0.13 | 3.51 ± 0.12 |
| SAGGSAGGSAGGAPEVKRVLVLVEVEVKPGDTIELPEGARVIWDPKTRRLYVLVEVELRPSAGGSAGGSAGG [r7_584_TrROS_Hall] | 3.38 ± 0.13 | 2.73 ± 0.12 | 3.77 ± 0.057 |
| SAGGSAGGSAGGAPPPPVKVKVVEIEEEGGERRIRVENEDTGEVVELRVPKGAEVLEELSAGGSAGGSAGGS [r10_1038_TrROS_Hall] | 1.23 ± 0.16 | 1.32 ± 0.048 | 1.37 ± 0.055 |
| SAGGSAGGSAGGAPVEVKTAVFRHPDNPRWYVLRVARLPGTGRLVVVLFDPETGEFAVFPSAGGSAGGSAGG [r7_923_TrMRF] | 1.67 ± 0.16 | 0.755 ± 0.087 | 2.18 ± 0.16 |
| SAGGSAGGSAGGATAEELAAALKELEAKLKALLEKPEEVEVEVEVKAPEVEEVDGKLVLLSAGGSAGGSAGG [r7_44_TrROS_Hall] | 0.145 ± 0.11 | 0.651 ± 0.041 | -1.19 ± 0.33 |
| SAGGSAGGSAGGATFKPGETVRVEVEVELRVFKVDEETGEIVEETETVTVRVEVEVRLESAGGSAGGSAGGS [r10_122_TrROS_Hall] | 2.04 ± 0.11 | 1.87 ± 0.1 | 2.32 ± 0.053 |
| SAGGSAGGSAGGDDNDPGKIKIEVEVETYPIPNPNGEPFYITTHTIKIPNLDIEFMMIMPSAGGSAGGSAGG [r7_945_TrROS] | 1.7 ± 0.11 | 2.01 ± 0.1 | 1.45 ± 0.039 |
| SAGGSAGGSAGGDIFIPPNGKLVVIENLPSIEEALEILKNFPNLKPFIDPKTKKIIVPVSAGGSAGGSAGGS [r10_792_TrMRF] | -0.216 ± 0.099 | -0.145 ± 0.075 | -0.338 ± 0.045 |
| SAGGSAGGSAGGDNVLILVKLPKGYRVYSINDPEVLKAVTLKELKDELEKKTGYPVEVLPSAGGSAGGSAGG [r7_259_TrMRF] | 1.57 ± 0.22 | 1.48 ± 0.041 | 1.66 ± 0.18 |
| SAGGSAGGSAGGDPDDKPPKIEWKPIEYSFYLPNGWMISDEIWVFPDNGAILISIEIMPSAGGSAGGSAGGS [r10_881_TrROS] | 3.37 ± 0.95 | 2.48 ± 0.21 | 3.67 ± 0.31 |
| SAGGSAGGSAGGDPKKKKGGTFTLTFKLKFTVNIPEGKVEYEFKAKIKITINEPPDFGLSSAGGSAGGSAGG [r7_485_TrMRF] | 5.67 ± 0.3 | 3.81 ± 0.2 | 5.81 ± 0.23 |
| SAGGSAGGSAGGDRLKIIIPFPPGMDIDQIAEELKPHFKKVEIEHDKEDGWVTIEVELDSAGGSAGGSAGGS [r10_1007_TrROS] | 0.939 ± 0.15 | 0.271 ± 0.097 | 1.08 ± 0.1 |
| SAGGSAGGSAGGDSMSYDPKLVEEPVVEVFDGPVLVRVTEVTLPNGKKLTTTEELPPGLESAGGSAGGSAGG [r7_846_JUSTAS] | 0.546 ± 0.09 | -0.436 ± 0.17 | 0.796 ± 0.05 |
| SAGGSAGGSAGGDSNVDNFTLMFPWGWVVKIDITYTDGGLETDWEIIEPVPPLPPDDKNKSAGGSAGGSAGG [r7_845_TrROS] | 2.77 ± 0.12 | 1.6 ± 0.081 | 3.54 ± 0.037 |
| SAGGSAGGSAGGDSVQIEFPDNGMTITINPNNGPISIMEPDGKKKTYPVDSPEEALDAISAGGSAGGSAGGS [r10_849_TrROS] | 1.14 ± 0.061 | 0.221 ± 0.027 | 1.42 ± 0.042 |
| SAGGSAGGSAGGDVKVTVTVTVDPETGEPVVEVTLELPGDRAIRARFTPDGRLLSVEEVDSAGGSAGGSAGG [r7_454_TrMRF] | 3.51 ± 0.21 | 3.79 ± 0.25 | 3.01 ± 0.16 |
| SAGGSAGGSAGGEAFEVERVELVLDPETGTPYLLVYFRDGRVLVYDLPRGTWRVVPAEELSAGGSAGGSAGG [r11_922_TrMRF] | 2.81 ± 0.065 | 2.21 ± 0.049 | 3.06 ± 0.076 |
| SAGGSAGGSAGGEELEVSVSVSVTEVDGKLYLTATVTIDGKEYTFTAELTVTLPPPPPEESAGGSAGGSAGG [r7_413_TrROS_Hall] | 3.71 ± 0.28 | 2.77 ± 0.32 | 3.91 ± 0.19 |
| SAGGSAGGSAGGEIEVKEGEVVLVRLPDGTLLLYDKNTRRLYRFRFKDGKLEVEELELPESAGGSAGGSAGG [r7_527_TrROS_Hall] | 4.03 ± 0.12 | 3.35 ± 0.06 | 4.356 ± 0.039 |
| SAGGSAGGSAGGEKEEEEVTVTIYNKETDKVIEITVPKGVTEEEARKKAKELAEELEKKKSAGGSAGGSAGG [r7_957_TrROS_Hall] | -0.00187 ± 0.19 | 0.29 ± 0.032 | -0.316 ± 0.21 |
| SAGGSAGGSAGGEKEPVTLLVVRVDGKLVVVSEEELKKLAEELNVEVEVRLVTVTKEELKSAGGSAGGSAGG [r7_185_TrROS_Hall] | 1.57 ± 0.085 | 0.567 ± 0.038 | 1.94 ± 0.033 |
